In patent US20140271701A1:

Biological target: serum antibodies (IgG) of Sardinian T1D patients, Example 1 (n=34; Ab+ sera) (human)
Experiment: competition ELISA on MAP3865c125-133-coated plates, sera pre-adsorbed with saturating peptide

Question: For MIIVSSCAV [ZnT8178-186 peptide (…)], which percent inhibition is on record?
Answer: 57 to 89%
